The target of series [1] is T1, Interleukin-8 (IL8, CXCL8), C-terminal His-tagged (Homo sapiens, UniProt P10145 SEQ:1-72). The experiment in a line: TR-FRET; bead flow 10 nM. The conditions noted are these: tags: C-terminal 6xHis (Sino Biological); label: Alexa Fluor 647. As to the method:
(§1) Aptamers were synthesized and labeled with ALEXA FLUOR® 647, and binding to IL8 was quantified by Time-Resolved Fluorescence Resonance Energy Transfer (TR-FRET). Briefly, 2-fold dilutions of thermally equilibrated aptamers were made in TR-FRET Buffer (50 mM MOPS, pH 7.4, 125 mM NaCl, 5 mM KCl, 50 μM CHAPS, 0.1 mg/mL BSA, 1 mM CaCl₂ and 1 mM MgCl₂). […] of aptamer or control solution was added to 10 μL of 15 nM C-His-tagged-IL8 (Sino Biological) in a black wall half-area plate (Corning). In the same plate, 10 μl of aptamer solution was added to 10 μl of TR-FRET buffer alone to use for background subtraction. 10 μl of 15 nM anti-His-Eu (Perkin Elmer) was added to each well, the plate was covered with a plate seal and subsequently incubated in the dark for 1 hour at room temperature. The plate was read on a Biotek CYTATION™ 5 plate reader. Samples were excited at 330 nm and fluorescent values were collected at 665 nm. […] Apparent Kd values obtained for the fits are calculated as the concentration of half-maximal binding and shown in Table 10, and fit curves as FIG. 6. […] It is also possible that differences may arise due to TR-FRET being a homogenous solution binding assay, while bead binding has immobilized ligand and is non-homogenous, so bound aptamers may dissociate during analysis resulting in higher calculated Kd values.
A general note: Time-resolved FRET reads energy transfer from a long-lived donor to a nearby acceptor.

The target in series [2] is T1, Interleukin-8 (IL8, CXCL8), C-terminal …. The series is described as follows: competition; competition TR-FRET; S2 shortened. The conditions noted are these: tags: C-terminal 6xHis (Sino Biological). As to the method:
(§2) To better understand the sequence requirements and to confirm the stem structures of members of the Aptamer 3 family as determined from sequence covariation analysis from both the primary and secondary (degenerate) selections, a series of variants which included mutations and deletions to the predicted stems were synthesized and screened (Table 24). Activity of each of these variants were tested using a time resolved competition TR-FRET assay in which the labeled parent Aptamer 3 was competed with increasing concentrations of unlabeled variants for binding to IL8 (FIG. 14). Briefly, 2-fold dilutions of thermally equilibrated aptamers were made in TR-FRET Buffer (50 mM MOPS, pH 7.4, 125 mM NaCl, 5 mM KCl, 50 μM CHAPS, 0.1 mg/mL BSA, 1 mM CaCl₂, and 1 mM MgCl₂). 5 μL of aptamer or control solution was added to 5 μl mix of 10 nM C-terminal His-tagged-IL8, 60 nM ALEXA FLUOR® 647-labeled Aptamer, and 5 nM anti-His-Eu (Perkin Elmer) in a black wall low volume 384 well plate (Greiner). For control, 5 μl of 1000-fold excess of unlabeled parent aptamer or 5 μl TR-FRET buffer alone was added to the mix of ALEXA FLUOR® 647-labeled aptamer, His-IL8, and anti-His-Eu. The plate was covered with a plate seal and subsequently incubated in the dark for 1 hour at room temperature. The plate was read on a Biotek CYTATION™ 5 plate reader. […]

Series [3] shares this target. The experiment in a line: TR-FRET. The conditions noted are these: tags: C-terminal 6xHis (Sino Biological); label: Alexa Fluor 647. As to the method: as §1
Series [4] shares this target. The series is described as follows: competition; competition TR-FRET; U20A. The conditions noted are these: tags: C-terminal 6xHis (Sino Biological). As to the method:
as §2

The target is the same in series [5]. The series is described as follows: TR-FRET; bead flow 13 nM. The conditions noted are these: tags: C-terminal 6xHis (Sino Biological); label: Alexa Fluor 647. As to the method:
as §1

For series [6] the target is unchanged. The series is described as follows: competition; competition TR-FRET; U20C. The conditions noted are these: tags: C-terminal 6xHis (Sino Biological).
The target is the same in series [7]. The series is described as follows: inhibition; inhibition of IL8 binding to CXCR1 cells, protein limited; neutrophil migration 3 nM. The conditions noted are these: tags: C-terminal His (Sino Biological); stem-loop. The protocol:
CXCR1 overexpressing cells were used to confirm that aptamers could block IL8 binding to its cognate receptor, CXCR1, in a functional setting. Briefly, CXCR1-overexpressing cells were plated in a 96 well plate and seeded overnight. Serially diluted aptamers and 5 nM IL8 were mixed in cell culture media and applied to cells for 2 hours at 37° C. Media was aspirated, and cells were washed 3× with PBS for 5 minutes. Cells were lysed in Ultra HiBlock Buffer (Perkin Elmer) with gentle agitation. IL8 levels were determined using Ultra TR-FRET (Perkin Elmer).

Series [8] shares this target. The experiment in a line: cell_activity; neutrophil migration, 3 nM IL8, protein limited. The conditions noted are these: tags: C-terminal His (Sino Biological); stem-loop. As to the method:
(§3) Freshly isolated primary human neutrophil migration stimulated by IL8 was measured using a transwell assay. Neutrophils were isolated from fresh whole human blood using Polymorphprep™ (AXIS Shield) and then were re-suspended in assay buffer (RPMI+0.1% Human Serum Albumin) at 10\hat{ }6 cells/mL. 5 μm Transwell inserts (Corning) were activated with […] in the plate and 100 µL of assay buffer in the transwell at 37° C. 3 nM IL8 and aptamers or controls were incubated for 1 hour, then 200 µL of the aptamer/IL8 mix was added to each well and 100 μL of neutrophils was added to the transwell. Aptamer inhibition was tested at two concentrations: 10 nM and 100 nM. After 45 minutes at 37° C., 100 μL from each well was transferred to a white 96-well plate with 50 μL of lysis buffer. The number of cells that migrated from the transwell to the well was quantified by ATPLITE® Luminescence Assay System (Perkin Elmer). In Table 13, values are normalized to 3 nM IL8 treatment and average between replicates with standard deviation. 3 nM IL8 activity inhibited by at least 50% at 10 nM aptamer concentration is consistent with aptamers having IC₅₀ values of 10 nM or better, as observed for Aptamer 3 and Aptamer 8.
The neutrophil migration assay described in Example 6 was used to further characterize optimized variants of Aptamer 3. […]

The target is the same in series [9]. The series is described as above. The conditions noted are these: tags: C-terminal His (Sino Biological); stem-loop. As to the method:
as §3
The neutrophil migration assays described in Examples 6 and 18 were used to confirm the activity of Aptamers 8, 212, and 248. Assays were performed as described in those examples.
The source holds these as a separate data set.

The target is the same in series [10]. The experiment in a line: TR-FRET; bead flow 19 nM. To be noted: tags: C-terminal 6xHis (Sino Biological); label: Alexa Fluor 647. The protocol: as §1
Series [11] has the same target. The experiment in a line: TR-FRET; bead flow 11 nM. The conditions noted are these: tags: C-terminal 6xHis (Sino Biological); label: Alexa Fluor 647. The protocol:
as §1

For series [12] the target is unchanged. The experiment in a line: TR-FRET; bead flow 21 nM. The conditions noted are these: tags: C-terminal 6xHis (Sino Biological); label: Alexa Fluor 647. The protocol: as §1
The target is the same in series [13]. The series is described as follows: competition; competition TR-FRET. The conditions noted are these: tags: C-terminal 6xHis (Sino Biological). The protocol: as §2
For series [14] the target is unchanged. The experiment in a line: competition; competition TR-FRET. The conditions noted are these: tags: C-terminal His (Sino Biological); stem-loop.

The source of these data is patent US20210230599, “STEM-LOOP COMPOSITIONS AND METHODS FOR INHIBITING INTERLEUKIN-8” (VITRISA THERAPEUTICS, INC., published 2021).

Substitutions are numbered along the chain they refer to. Where only a bound is given, the exact number is not on record here.

Usually Kd stands for the constant that tells how readily two partners part at equilibrium. Low readings indicate tighter binding, high ones weaker binding. In [1], UUAAGCGCUGAGACGAGAGAUUAAUGCCGCUUGCCU (ssRNA, 2'-F G, 2'-OMe A/C/U, 5' C6NH2, 3' idT) [Aptamer 21] had a Kd of 7 nM.
For the molecule GCGACGCAGAUUACGGGUAGAGUGGCGCGC (ssRNA, 2'-F G, 2'-OMe A/C/U, 5' C6NH2, 3' idT) [Aptamer 45], the binding signal in series [2] was more than 10 fold worse than Aptamer 3.
As to GCGACGUAGAUUACGGGUAGAGUGACGCGC (ssRNA, 2'-F G, 2'-OMe A/C/U, 5' C6NH2, 3' idT) [Aptamer 44], in [2], the binding signal is more than 10 fold worse than Aptamer 3.
Consider UGGAUGACAUUCGGGGGCACCAAUCAUCGUCUGCU (ssRNA, 2'-F G, 2'-OMe A/C/U, 5' C6NH2, 3' idT) [Aptamer 18], for which the Kd in series [3] amounted to 13 nM. In other words, the double-digit nanomolar range.
In the case of CGGUGGGAAAUGUGAGAAGGGUUGCCG (ssRNA, 2'-F G, 2'-OMe A/C/U, 5' C6NH2, 3' idT) [Aptamer 59], the binding result in series [4] was “binds”.
Regarding UGCGGCCUCCGUUGACUGUUGUAAUGCCGGGACAGU (ssRNA, 2'-F G, 2'-OMe A/C/U, 5' C6NH2, 3' idT) [Aptamer 14], in series [5], binding was characterised by a dissociation constant (Kd) of 6 nM.
Take CGGUGGGAAAUGUGAGACGGGUUGCCG (ssRNA, 2'-F G, 2'-OMe A/C/U, 5' C6NH2, 3' idT) [Aptamer 54]: the binding result in series [6] is reported as “binds”.
The term IC50 denotes the concentration that gives 50% inhibition. In series [7], UGAUGACGGUAGAUUAUGGGCAGUGUGACCGCAUCU (ssRNA, 2'-F G; 2'-OMe A,C,U; 5' C6NH2; 3' idT) [Aptamer 99] displayed an IC50 of 4 nM.
Regarding UGAUGACGGUAGAUUUCGGGUAGUGUGACCGCAUCU (ssRNA, 2'-F G; 2'-OMe A,C,U; 5' C6NH2; 3' idT) [Aptamer 94], in [8], the IC50 came out at 3 nM.
The molecule UACGGUGGGAAAUGUGAGAUGGGUUGCCGUAUUUU (ssRNA, 2'-F G; 2'-OMe A,C,U; 5' C6NH2; 3' idT) [Aptamer 8] had an IC50 in [9] of 2 nM.
In series [10], UUGCCCUUUGAUCGUACCGAGGCGGGGAAGUACGAU (ssRNA, 2'-F G, 2'-OMe A/C/U, 5' C6NH2, 3' idT) [Aptamer 24] returned a Kd of 9 nM.
On to UAGCGGCCGAAGUUAGCGUACGUUUGCCGGGUACGU (ssRNA, 2'-F G, 2'-OMe A/C/U, 5' C6NH2, 3' idT) [Aptamer 2], for which the affinity in series [11], expressed as Kd, was 9 nM. This counts as single-digit nanomolar.
Take UCGCUUGUACCUCUGAGAUGUGAGACUAAUGUAGGU (ssRNA, 2'-F G, 2'-OMe A/C/U, 5' C6NH2, 3' idT) [Aptamer 13]: the Kd in series [12] amounted to 7 nM.
For GGCGACGGUAGAUUUUGGGUAGUGUGACCGCGCC (ssRNA, 2'-F G, 2'-OMe A/C/U, 5' C6NH2, 3' idT) [Aptamer 193], the binding result in series [13] is reported as “binds”.
As to GGCGACGGUAGAUUUUGGGCAGUGUGACCGCGCC (ssRNA, 2'-F G, 2'-OMe A/C/U, 5' C6NH2, 3' idT) [Aptamer 197], the binding result in [13] is “binds”.

B1: Aptamer 269 (ssRNA)
RNA: GGCGACGGUAGAUUAUGGGCAGUGUGACCGCGCC
modifications: 2'-F G except 2'-OMe G at X (XXCX-A-CXXU-AX-AU-UAUGGGCAGU-GU-G-ACCX-CXCC); 2'-OMe A,C,U; 5' C6NH2; 3' idT
Regarding B1, the IC50 in [7] amounted to 3 nM. That is a single-digit nanomolar value.
Consider GGCGACGGUAGAUUUCGGGUAGUGUGACCGCGCC (ssRNA, 2'-F G; 2'-OMe A,C,U; 5' C6NH2; 3' idT) [Aptamer 143], for which, in series [8], the midpoint of inhibition, the IC50, lay at 2 nM.
In series [3], UCAGUUGCGGCCCCUGAUACCGAUUUGCCGCCCGGU (ssRNA, 2'-F G, 2'-OMe A/C/U, 5' C6NH2, 3' idT) [Aptamer 15] registered a Kd of 22 nM.

B2: Aptamer 248 (ssRNA)
RNA: GCGGUGGGAAAUGUGAGAUGGGUUGCCGC
modifications: 2'-F G except 2'-OMe G at X (XCXXU-GGGA-AAUGU-GAGAU-GGGUU-XCCXC); 2'-OMe A,C,U; 5' C6NH2; 3' idT
As for B2, the IC50 in series [9] was found to be 2 nM.

B3: Aptamer 272 (ssRNA)
RNA: GCGACGGUAGAUUAUGGGCAGUGUGACCGCGC
modifications: 2'-F G except 2'-OMe G at X (XCX-A-CXXU-AX-AU-UAUGGGCAXU-GU-X-ACCX-CXC); 2'-OMe A,C,U; 5' C6NH2; 3' idT
In the case of B3, the binding signal in series [14] is > 10 fold worse than Aptamer 147.

B4: Aptamer 278 (ssRNA)
RNA: B3 RNA with A14U, U15C, C19U
modifications: 2'-F G except 2'-OMe G at X (XCX-A-CXXU-AX-AU-UUCGGGUAXU-GU-X-ACCX-CXC); 2'-OMe A,C,U; 5' C6NH2; 3' idT
As to B4, in [14], the binding signal is > 10 fold worse than Aptamer 147.
